One protein from publication PMC11845978 (Protein Science : A Publication of the Protein Society, 2025) can be followed below.

This series deals with the molecule itself. The series can be described thus: […].

B1: Hendra virus PNT3 (aa 200–310 of the P/V/W proteins), wild type, full-length PNT3 (domain or fragment)
chain: TPTEEPPVIPEYYYGSGRRGDLSKSPPRGNVNLDSIKIYTSDDEDENQLEYEDEFAKSSSEVVIDTTPEDNDSINQEEVVGDPSDQGLEHPFPLGKFPEKEETPDVRRKDS
For the protein B1, the binding result is listed as “binds”.
